Assay results from the supplement of paper PMC6755084.

B1: F1*; the commonest letter at each place (parent)
chain: GAGACCGCAACTGAAAAGTTGTTATCACTTGTCGTAAGACACTTTGGATGGGTTGAAGTTCTGCACGTAGAAGCAAAAGGC

Variants of: B1
Test: fraction ligated after 30 min (ligated reads / total reads); higher = more ligase activity
Conditions: with F1*sub RNA substrate (template-directed ligation), 42 °C
Method: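 Chip-synthesised pool of F1* ligase ribozyme variants (all single and double substitutions, single, double and triple deletions in the catalytic core and GAA bulge, plus designed variants) was transcribed with T7 and reacted as a pool with excess substrate F1*sub for 30 min at 42 C in 50 mM EPPS pH 8.5, 25 mM MgCl2. Ligated and unligated bands were separated by PAGE, barcoded by RT and deep sequenced; fraction ligated = ligated reads / total reads per variant, relative activity = FL / FL of wild type (0.826). Sequences are the DNA template of the ribozyme.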

Variant | fraction ligated
T25C T43A | 0.655
T25C T43C | 0.731
T25C T43G | 0.8
T25C A56G | 0.0517
T25C A56T | 0.107
T25C A56C | 0.0931
T25A T35C | 0.761
T25A T35G | 0.764
T25A T35A | 0.751
C26A G47C | 0.0466
C26A G47A | 0.762
C26A G47T | 0.235
T25G G46A | 0.266
T25G G46T | 0.134
T25G G46C | 0.135
C26A A39T | 0.721
C26A A39C | 0.627
C26A A39G | 0.75
T25G C42A | 0.737
T25G C42G | 0.737
T25G C42T | 0.797
C26A T35C | 0.807
C26A T35G | 0.794
C26A T35A | 0.803

Variant | fraction ligated
C26G A37G | 0.762
C26G A37C | 0.674
C26G A37T | 0.707
C26G A41T | 0.459
C26G A41C | 0.0431
C26G A41G | 0.716
C26A T30A | 0.791
C26A T30G | 0.802
C26A T30C | 0.781
T25C C40A | 0.524
T25C C40T | 0.819
T25C C40G | 0.378
T25G A39T | 0.393
T25G A39G | 0.759
T25G A39C | 0.373
T25A G55A | 0.263
T25A G55T | 0.0485
T25A G55C | 0.0483
T25A T43G | 0.624
T25A T43A | 0.463
T25A T43C | 0.286
T25C A39G | 0.786
T25C A39C | 0.741
T25C A39T | 0.766

Variant | fraction ligated
C26A A56T | 0.14
C26A A56G | 0.096
C26A A56C | 0.0368
T25G T43A | 0.684
T25G T43G | 0.515
T25G T43C | 0.409
C26A T45A | 0.366
C26A T45G | 0.0382
C26A T45C | 0.0795
T25G A48C | 0.819
T25G A48T | 0.818
T25G A48G | 0.291
T25A C40G | 0.256
T25A C40A | 0.134
T25A C40T | 0.647
T25A G34T | 0.718
T25A G34C | 0.521
T25A G34A | 0.724
C26G | 0.773
C26A | 0.788
C26A A57G | 0.804
C26A A57T | 0.738
C26A A57C | 0.717
T25G T49C | 0.527

Variant | fraction ligated
T25G T49G | 0.779
T25G T49A | 0.723
T25C G55T | 0.174
T25C G55C | 0.424
T25C G55A | 0.784
T25A T45A | 0.0271
T25A T45C | 0.0183
T25A T45G | 0.029
T25C G50A | 0.326
T25C G50C | 0.379
T25C G50T | 0.639
T25G G31C | 0.0618
T25G G31T | 0.0799
T25G G31A | 0.0861
C26A C33A | 0.721
C26A C33G | 0.792
C26A C33T | 0.829
C26A T44C | 0.782
C26A T44G | 0.78
C26A T44A | 0.792
T25G C40A | 0.229
T25G C40T | 0.732
T25G C40G | 0.58
T25G A57C | 0.556

Variant | fraction ligated
T25G A57T | 0.563
T25G A57G | 0.703
T25C A57C | 0.563
T25C A57T | 0.682
T25C A57G | 0.711
T25C G46C | 0.474
T25C G46T | 0.396
T25C G46A | 0.71
T25G T32G | 0.293
T25G T32C | 0.364
T25G T32A | 0.324
C26A T43A | 0.809
C26A T43C | 0.755
C26A T43G | 0.547
T25C C42G | 0.769
T25C C42T | 0.804
T25C C42A | 0.776
T25A G46T | 0.0811
T25A G46C | 0.137
T25A G46A | 0.279
T25G G55A | 0.442
T25G G55T | 0.132
T25G G55C | 0.0471
C26A T29G | 0.784

Variant | fraction ligated
C26A T29A | 0.786
C26A T29C | 0.804
T25A G38C | 0.0835
T25A G38A | 0.353
T25A G38T | 0.375
T25G A37C | 0.757
T25G A37T | 0.808
T25G A37G | 0.806
C26A G34A | 0.786
C26A G34T | 0.808
C26A G34C | 0.805
T25C T30G | 0.162
T25C T30A | 0.75
T25C T30C | 0.751
T25A T49C | 0.612
T25A T49G | 0.772
T25A T49A | 0.721
T25G A36T | 0.795
T25G A36C | 0.77
T25G A36G | 0.795
T25C C26G | 0.0807
T25C C26A | 0.0548
T25C C26T | 0.813
C26G A39G | 0.755

Variant | fraction ligated
C26G A39C | 0.123
C26G A39T | 0.493
T25G C28T | 0.675
T25G C28A | 0.348
T25G C28G | 0.541
T25C A41C | 0.517
T25C A41G | 0.757
T25C A41T | 0.82
T25C A27C | 0.744
T25C A27G | 0.796
T25C A27T | 0.774
C26A T49C | 0.0891
C26A T49A | 0.216
C26A T49G | 0.502
C26A C40G | 0.793
C26A C40A | 0.755
C26A C40T | 0.814
T25G C33G | 0.535
T25G C33A | 0.526
T25G C33T | 0.704
C26A T32C | 0.545
C26A T32A | 0.48
C26A T32G | 0.499
